# Test results taken from article PMC7817830, “SUMOylation disassembles the tetrameric pyruvate kinase M2 to block myeloid differentiation of leukemia cells” (Cell Death & Disease, 2021).
# B1: Flag-tagged K270R mutant PKM2 expressed in 32D BCR-ABL cells (enzyme)
# chain: not shown
# notes: pyruvate kinase, M2 isoform (PKM2); also called PKM2^K270R; KR; source: 32D BCR-ABL cells, ectopically expressed, in lysate
# Biological target: the molecule itself
# Experiment: SEC; cell lysate of 32D BCR-ABL cells on Superdex 200 10/300GL, 50 mM phosphate, 0.15 M NaCl, pH 7.2; fractions by UV absorbance and western blot
protein,measurement,value
B1,stoichiometry N,4
